Experiment [1] has as its target afucosylated IgG1 and IgG3 (HLA-A2 mAbs, as a group for a mean dissociation rate). The experiment can be described thus: BLI; SAX2 tips loaded with biotinylated HLA-A2 (0.25 ug/mL), then recombinant HLA-A2 IgG (3 ug/mL, 600 s), dipped into 5 uM monomeric FcγRIIIa V158; 0.05% Tween-PBS; off-rate from a one phase exponential decay fit, reference tip subtracted. (Biolayer interferometry detects binding as a change in optical thickness at a sensor tip.)

Experiment [2] addresses unmodified forms (of BB7.2 IgG1 and IgG3, as a group for a mean dissociation rate). The description is as above.

Consider “FcγRIIIa V158 (human, monomeric) (receptor)”, for which the koff came to 0.021 s⁻¹ in experiment [1] and 0.46 s⁻¹ in experiment [2].

For orientation: koff means the rate constant with which the complex falls apart.

These data come from publication PMC9729883.
